Results: patent US20180222996A1 (SCOTT AND WHITE HEALTHCARE SWH, published 2018)

Target: T1, Human CD123 on stably transfected CHO-K1 cells (CHO-CD123) (human, UniProt P26951 19-378)
T1 construct: whole, on cells; also called IL-3 receptor alpha subunit; cell surface CD123
Test: flow cytometry on CHO-CD123 cells, 1 µg/ml
Experimental: Log phase growing monolayer cells were harvested with trypsin/EDTA solution (ATCC) and washed once with culture media and once with PBS containing 1% BSA. 1×10⁶ cells were resuspended in 200 μl staining solution (PBS, 1% BSA, 3% normal goat serum and indicated concentration of 12F1, 12F1scFv-Fc or CD123xCD3 BIf) at room temperature for 1 hour. Human IgG1 (Sigma) was used as a control. Cells were rinsed twice with PBS containing 1% BSA and incubated with PE-conjugated goat anti-human or anti-mouse antibody (Jackson Lab) at room temperature for 1 hour. Cells were thrice washed with PBS containing 1% BSA, resuspended in 500 μl of PBS and analyzed on a Beckman Coulter Cytomic FC 500 flow cytometry.
The abilities of 12F1scFv-Fc and CD123xCD3 BIf to bind cell surface CD123 were examined by flow cytometry using CHO-K1 and CHO-CD123. 12F1 murine monoclonal antibody was used as a positive control. […] The binding affinities were tested in cell-based ELISA with CHO-CD123 cells.

T1 sequence (P26951 19-378): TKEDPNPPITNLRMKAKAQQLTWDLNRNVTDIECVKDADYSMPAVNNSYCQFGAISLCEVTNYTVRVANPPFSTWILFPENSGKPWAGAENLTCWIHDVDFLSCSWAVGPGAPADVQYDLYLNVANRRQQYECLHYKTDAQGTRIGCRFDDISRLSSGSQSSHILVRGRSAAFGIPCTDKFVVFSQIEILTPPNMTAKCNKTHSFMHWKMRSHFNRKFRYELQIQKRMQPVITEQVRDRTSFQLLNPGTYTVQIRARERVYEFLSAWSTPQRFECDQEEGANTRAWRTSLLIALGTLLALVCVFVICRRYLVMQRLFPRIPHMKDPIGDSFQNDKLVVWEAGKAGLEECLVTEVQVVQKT

binding result: binds
B1: 12F1 murine anti-human CD123 monoclonal antibody (antibody, V domains shown)
VH: VQLQESGPGLVKPSQSLSLTCSVTDYSITSGYYWNWIRQFPGNKLEWMGYISYDGSNNYNPSLKNRISITRDTSKNQFFLKLSSVTTEDTATYYCSRGEGFYFDSWGQGTTLTVSS
VL: DIMMSQSPSSLAVSVGEKFTMTCKSSQSLFFGSTQKNYLAWYQQKPGQSPKLLIYWASTRESGVPDRFTGSGSGTDFTLAISSVMPEDLAVYYCQQYYNYPWTFGGGTKLEIK
notes: Murine monoclonal antibody from hybridoma
